This is an account of results in patent publication US5532348.

The target in assay [1] is HPV16 E6, wheat germ extract translated (human papillomavirus type 16) (UniProt P03126).
For assay [2] the target is unchanged. The source holds these as a separate data set.

On to “GST-E6-AP fusion protein with amino acids 371 to 440 of SEQ ID NO:1 (SEQ ID NO:2)”, for which the percent of the input 35S-labeled HPV16 E6 bound in assay [1] was 50%. Still for that read-out and setting: next, “GST-E6-AP fusion protein, amino-terminal portion (amino acids 213 to 489 of SEQ ID NO:1)”: 50%. In turn, “synthetic peptide consisting of the 18 mer region, amino acids 391 to 408 of SEQ ID NO:1 (SEQ ID NO:3)” yielded a molar excess for fifty percent binding competition in assay [2] of 5000.
